Data on 20 sequences can be found in the DeepSol protein solubility set.

This series is described as follows: soluble on expression in E. coli; label from the status in PepcDB or PDB records.
Take “MKQFLITGGTGMVGSQLVNKLKNRDVHITILTRSDKQSDDPKISYVNWSKDGWMSQVPDIDVVVNLAGATLNKRWTPSYKQLIMTSRIQSTQSLVDLFSQREHKPEVLFNASAMGYYPPSLYHTYTEKYQTHPFDFLSDVVYQWERFAKRFESFGTRVVLGRFSMILSNDGGALQTMKLPYKFFVGGKLGSGFQWYSWIHINDLVRAILFTIDNPNAKGPFNMAAPIAERQNLFGYTLARVMHRPHETWVPSFLMRLALGEMSTVVLDTQKVLPNKLDALGFTFNYSNLKIAFEDLIDALEHHHHHH”: the “soluble on expression in E. coli” value is on record as “not soluble”.

For the sequence “MKQLTVEDAKQIELEILDYIDTLCKKHNINYIINYGTLIGAVRHEGFIPWDDDIDLSMPREDYQRFINIFQKEKSKYKLLSLETDKNYFNNFIKITDSTTKIIDTRNTKTYESGIFIDIFPIDRFDDPKVIDTCYKLESFKLLSFSKHKNIVYKDSLLKDWIRTAFWLLLRPVSPRYFANKIEKEIQKYSRENGQYMAFIPSKFKEKEVFPSGTFDKTIDLPFENLSLPAPEKFDTILTQFYGLEHHHHHH”, the “soluble on expression in E. coli” value was “not soluble”.

For the sequence “MKQRPKEYYEQLEELQAVDFTLVELTLYLDTHPTDYQAIQQFNQLAQKRKQLKKQFEAAYGPLEQFGHSYSNYPWNWDDTPWPWQV”, the “soluble on expression in E. coli” value is “not soluble”.

“MKQSKIIVAGIGPGSEQDITPAVLAAVREADVVVGYKYYFRFIRDFVRPDAECIDTGMKRERARAEQAFEYAEQGKTVCVISSGDAGIYGMTPLIYEMKRERQSNVEIIALPGISAFQKAASLLGAPIGHDFCVISLSDLMTPWERIERRILAAAQADFVTAVYNPKSDGRYWQIYRLREIFLREGRSPETPVGYVRQAGREEQEIHITTLAAFDPETVDMFTVVLIGNSQTYTFNQNIITPRGYYRETRSEATGIGQDIMIRSFRTIETELKNRDIPLDRKWALLHAIHTTADFEMERLLYTDPNAVASLYDAIRTGNLRTIVTDVTMAASGIRKGALQRLGVEVKCYLNDERVAEMATSKGITRTQAGIRLAVEEHPDALFVFGNAPTALMELCDLIRKEKAQPAGIVAAPVGFVHVEESKHMTKPFTHIPKLIVEGRKGGSNLAATLVNAILCYPDAEQLRPGRDV”: the “soluble on expression in E. coli” value is on record as “soluble”.

Turning to “MKQTVLLLFTALFLSGCSVASADDSVPRFTEEGKYIGSADPHTIAVSLNGEETMIQVPKDKRDECESLPDQTHVLVKYTKKDNGTLQLEDIQLRKTS”, the “soluble on expression in E. coli” value is on record as “soluble”.

In the case of “MKRAAFYTLGCKVNQYETEAISEMFEKAGYKIVDFEDEADVYVINTCTVTNLSDRKSRQMIRRAKRNNENSIVIVIGCYAQTAPEEVSKIEGVNLVVGTKDRSRILEYLKELETSGGRRNYVGDIMKTREFEELGVNVYKERTRAFIKIQEGCNQFCTYCIIPYARGPVRSRSEENILKEVSGLAHSGYKEVVLTGIHVASYGKDIKNTSLIDIIRKVHEIEGIERIRLGSIEPTTVTEEFVRAIKGMEKLCPQFHISLQSGCDSTLKRMNRKYTTKEYLRSVELLRENLKDVAVTTDVMVGFPGETDEEFNETCRFVEKVLFARMHVFKYSRRKGTPAASYPDQVAPQKKEERSRILIELASRMTLEYNKSFTGRVLPVLFEQEVKGKEGFMEGLTPNYIRVECKGDKDIEGQILNVLLREAKDDYIVGEIVN”, the “soluble on expression in E. coli” value was “soluble”.

As to “MKRAFIMVLDSFGIGATEDAERFGDVGADTLGHIAEACAKGEADNGRKGPLNLPNLTRLGLAKAHEGSTGFIPAGMDGNAEVIGAYAWAHEMSSGKDTPSGHWEIAGVPVLFEWGYFSDHENSFPQELLDKLVERANLPGYLGNCHSSGTVILDQLGEEHMKTGKPIFYTSADSVFQIACHEETFGLDKLYELCEIAREELTNGGYNIGRVIARPFIGDKAGNFQRTGNRHDLAVEPPAPTVLQKLVDEKHGQVVSVGKIADIYANCGITKKVKATGLDALFDATIKEMKEAGDNTIVFTNFVDFDSSWGHRRDVAGYAAGLELFDRRLPELMSLLRDDDILILTADHGCDPTWTGTDHTREHIPVLVYGPKVKPGSLGHRETFADIGQTLAKYFGTSDMEYGKAMF”, the “soluble on expression in E. coli” value is reported as “not soluble”.

On to “MKRFLLSLLALTTLVGCNSKDDNTPTPAKPLSEQQQAYLPTKKVKRISCTYIDEGTTSNTNSPNSYLEAELYNQTYTLRTAEYLYEYDNMGRINKVTIKQERKPEDVRTFTYKDYSVIITAPYDTEVNGQYDIQAVEYGLNAAGNTLGFGMYNEKQQLKSVGDEIITWENDNITKIISKDDREGNKILETVLTYYNNENKNKFNVFSFDFSRESRSFMNYFEMPIALIIGASPKNLPKKVVIPSSRYNGEIENKIIELTYTFDNDGFVKNISENEYLRTGTSVGAYYQNSSYGDIDATTMSNTLQDLMTKIDNGTVTGKSYKIINNKQNERVIQFTIPIKVEKDSNGKPLNLIVDKICEYTFRYITENNQKKLSQIEMNITFKPHLVTHYELNY”, for which the “soluble on expression in E. coli” value is “not soluble”.

In the case of “MKRGKGEKKATKSRDGSGQVVPLTEPVVTATGMVGTRSWIGGLFTRSNRRQDKAVDYTLSPLQEERLQRLQDRMVVPFDETRPDHQESLKALWNVAFPNVHLTGLVTEQWKEMGWQGPNPSTDFRGCGFIALENLLFSARTYPVNYSLLLKQRGDRAKWEYPFAVAGINISFMLIQMLDLQNNQDERAFDVLYCIAFAMMDAQWLAMHASYMEFNEVLQATRNQLERELSLDDIHRIQDLPAYNLLFQ”, the “soluble on expression in E. coli” value was “soluble”.

Consider “MKRLIGILLCNLFILTACSASVDKTSNSTKTTDYKIENGETLKVPEKPKRVAVLTGFYVGDFIKLGIKPIAVSDITKDSSILKPYLKGVDYIGENDVERVAKAKPDLIVVDAMDKNIKKYQKIAPTIPYTYNKYNHKEILKEIGKLTNNEDKAKKWIEEWDDKTRKDKKEIQSKIGQATASVFEPDEKQIYIYNSTWGRGLDIVHDAFGMPMTKQYKDKLQEDKKGYASISKENISKYAGDYIFLSKPSYGKFDFEKTHTWQNIEAVKKGHVISYKAEDYWFTDPITLEHLRSKLKKEILNKK”, for which the “soluble on expression in E. coli” value was “not soluble”.

For “MKRLSFLTLRPRHLSFLTLQRRNALRDALRHRSAPRRAFRIGRRASRTACDAERRTIVRLSFRALQPRRLSLLTLQRRNALRDALRHRSAPRRVFRIGRRASRTACDAQRCTIVRLSFRALQPRRLSFLTLQRRSALRDALHHKSAPRCTFKIGRGASRTACDAERRTIVRLSFRALQPRRLSFLTLQRRNALGDALRHKSAPRCTFKIGREASRTACDAERRTIVRLSFRALQPRRLSFLTLQRRNALRDALRHKSAPRRAFRIGRRASRTACDAERRTIVSQISLNALEHHHHHH”, the “soluble on expression in E. coli” value is recorded as “not soluble”.

Turning to “MKRQLILEDGSFFVGEAFGSLKETTGEVVFNTGMTGYQEILTDPSYCGQIVTMTYPLIGNYGINRDDFEAIRPHVHGFIVKEACVKPSNWRGELTLDEYLKEKDIPGLAGIDTRKLTRLIRQYGTLKGMICGLDVDPVEAAAKLRAMEWPRDQVRRVSTKSAYPSPGRGERIVLIDFGMKHGILRELNKRNCDVIVLPYNATAEEVLGWHPDGVMLSNGPGDPKDVPEAIEMIRGILGKVPLFGICLGHQLFALACGANTEKMKFGHRGSNHPVKDLRTGKVAITSQNHGYTVTHESLSGTRLEVTHIALNDGTVEGLRHLDVPAFTVQYHPEASPGPEDANPLFDEFLALIREFNKKGEVIHA”, the “soluble on expression in E. coli” value was “soluble”.

Turning to “MKRYRTLLFDVDDTILDFQAAEALALRLLFEDQNIPLTNDMKAQYKTINQGLWRAFEEGKMTRDEVVNTRFSALLKEYGYEADGALLEQKYRRFLEEGHQLIDGAFDLISNLQQQFDLYIVTNGVSHTQYKRLRDSGLFPFFKDIFVSEDTGFQKPMKEYFNYVFERIPQFSAEHTLIIGDSLTADIKGGQLAGLDTCWMNPDMKPNVPEIIPTYEIRKLEELYHILN”, the “soluble on expression in E. coli” value is listed as “not soluble”.

Take “MKSAWMEKTYTIDGCAFHTQHRKGSSGVTIVFEAGYGTSSETWKPLMADIDDEFGIFTYDRAGIGKSGQSRAKRTADQQVKELESLLKAADVKPPYLAVSHSYGAVITGLWACKNKHDIIGMVLLDPALGDCASFTFIPEEMHKSHTRKMMLEGTHAEFSKSLQELKKRQVHLGNMPLLVLSSGERTEKFAAEQEWQNLHSSILSLSNQSGWIQAKNSSHNIHHDEPHIVHLAIYDVWCAACQQAAPLYQAVN”: the “soluble on expression in E. coli” value is “not soluble”.

In the case of “MKSEPDTFSIDDLERVGTEPWNGVRNYQARNFMRDGMHVGDGVFFYHSNCKVPGIVGIAKVASAAYPDDTQFDPSSDYHDPKSTREDPRWMLVDVAFERKLTRTISLDEIKQQADALGEGFPLIARGNRLSILPVTAAQWKVLLAMELEHHHHHH”, the “soluble on expression in E. coli” value was “not soluble”.

Regarding “MKSIHYTKAVSGTERMTFGSNDEWERIVEEMLEFEKICIPFHSTSHSPDILFKLHGRTNEKNLMIVGIACKGRWSRNGIRWNEILEEAHKFLKPVHDQVLTSHPTWHCMLIIMSTQLATNVSEDLNHSSRCYSFGDSVGDFVIPHNCELVILSEADVENFIGKDILSNLRNAFKAVDNPHSRNIGISTLQKIVLLLSKNI”, the “soluble on expression in E. coli” value is “not soluble”.

For “MKSIIIAAPHSGSGKTTITVGIMECFRRRGLTVAPFKVGPDFIDPGYHRLVTGLPSANLDGWICPPEFVRASFAHHALNADMAIIEGVMGLFDGFGGIADEGSTAQVARLTGAPVILVVDARGLARSAAAILKGFAEFDPSVRVAGVIFNNVGSDSHERILREAVGQSLPELKVFGCIPRDDGLHIPARHLGLLTAEEHPLSGEFLDHLVEVIRDRVDLGLLWGAANPLGAPVPRAEPIPCQTLGGSVRLAVARDEAFCFVYEDNLCLLRRAGAEIVTFSPLRDERLPEDVAGVYLPGGYPEVFADALAANTGMKESLARAVNEGMPVYAECGGFIYLTRGVTDSAGEPESLHEFVGIFPVTTRMLPRRKALGYREVELAADTIIGPAGTLARGHEFHYSEMEEMPADVERAYRVRRGPVDLGMEGYRYRNCLASYVHLHFGSNPELAAAFVARCRSFVTRSRVLEHHHHHH”, the “soluble on expression in E. coli” value was “not soluble”.

As to “MKSNEHDDCQVTNPSTGHLFDLSSLSGRAGFTAAYSEKGLVYMSICGENENCPPGVGACFGQTRISVGKANKRLRYVDQVLQLVYKDGSPCPSKSGLSYKSVISFVCRPEAGPTNRPMLISLDKQTCTLFFSWHTPLACEQATECSVRNGSSIVDLSPLIHRTGGYEAYDESEDDASDTNPDFYINICQPLNPMHAVPCPAGAAVCKVPIDGPPIDIGRVAGPPILNPIANEIYLNFESSTPCLADKHFNYTSLIAFHCKRGVSMGTPKLLRTSECDFVFEWETPVVCPDEVRMDGCTLTDEQLLYSFNLSSLSTSTFKVTRDSRTYSVGVCTFAVGPEQGGCKDGGVCLLSGTKGASFGRLQSMKLDYRHQDEAVVLSYVNGDRCPPETDDGVPCVFPFIFNGKSYEECIIESRAKLWCSTTADYDRDHEWGFCRHSNSYRTSSIIFKCDEDEDIGRPQVFSEVRGCDVTFEWKTKVVCPPKKLKHHHHHH”, the “soluble on expression in E. coli” value is reported as “soluble”.

For “MKSRLPFRYLEPTFCAGLLDDPVLLVNVRPLGRSILVDCGQIHHLAKRVLKSIDAVFVSHAHMDHFMGLDTLVRHIHVSPRTVELFGPPGIARKVAAKLAGYDWNLTESYWCTFRVSEVHPERIVRFTFPGSEGFPCLPEEETTREGTEIFRNDFLAVDADLCDHNTLPTLVFRITERPTFWIDEAKVDQEGLVPGEWLRELKHRFYRGRLDGKTITVPVRTAGDTVAQRIREGRELFEAIRRSQEPASIGYLTDIGAGDTNLATVRRLLAGVTLLACECSFLAADVAKARTSHHLCTADVSALAREIRPGWLLPMHLSKSYNTKGHLLYRELTLAPETRLIRLPEHLTPRPLLPGEFPGLWKIAEMAGDPNSLEHHHHHH”, the “soluble on expression in E. coli” value is “not soluble”.

As for “MKSSTMTSDYYKQTQIDQTLRLREVLKTLPPFAKDYFRAMEPKSSAKTRINYAYDIRVFFHFLLENNPIYKNYTMDQFRVQDLERIEPVDIEEYMEYLKVYKREDNEMITNGERGLKRKMSALRSFYSYYFKHQYIATNPTLLEHHHHHH”, the “soluble on expression in E. coli” value is “not soluble”.
